From US20250136710A1 (published 2025)
Read-outs that look alike come from different tables or passages of the source. Each block holds one binder with its values, some of them ahead of it.

Key:
Assay in all cases: FACS
mouse TIGIT = target: T1, mouse TIGIT (mouse, UniProt P86176 29-148)
T1 chain: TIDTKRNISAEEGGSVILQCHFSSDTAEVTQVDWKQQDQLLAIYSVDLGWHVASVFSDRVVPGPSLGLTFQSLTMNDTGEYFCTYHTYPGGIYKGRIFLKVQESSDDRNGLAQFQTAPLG

cynomolgus TIGIT [1] = target: T2, cynomolgus TIGIT (cynomolgus macaque, UniProt A0A7N9I9V4 89-209)
[2] = target: T3, cynomolgus macaque PVRIG expressed on HEK293 cells (cynomolgus macaque, UniProt A0A2K5WVV8 1-322)
T3 chain: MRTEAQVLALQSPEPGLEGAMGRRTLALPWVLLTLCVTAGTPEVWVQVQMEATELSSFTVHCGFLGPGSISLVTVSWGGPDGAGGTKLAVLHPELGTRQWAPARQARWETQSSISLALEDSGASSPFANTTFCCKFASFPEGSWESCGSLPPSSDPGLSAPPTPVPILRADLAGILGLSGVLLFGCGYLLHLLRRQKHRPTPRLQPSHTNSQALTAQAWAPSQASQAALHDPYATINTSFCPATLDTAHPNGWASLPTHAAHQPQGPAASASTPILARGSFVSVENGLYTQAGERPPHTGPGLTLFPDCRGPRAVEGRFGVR

TIGIT [3] = target: T4, TIGIT (human, UniProt Q495A1 22-141)
T4 chain: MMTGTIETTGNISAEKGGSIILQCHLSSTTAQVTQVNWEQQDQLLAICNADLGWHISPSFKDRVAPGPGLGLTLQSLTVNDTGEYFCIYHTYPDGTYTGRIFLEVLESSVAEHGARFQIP

cynomolgus TIGIT [4] = target: T2, cynomolgus TIGIT; remark: listed apart in the source
TIGIT [5] = target: T4, TIGIT
[6] = target: T3, cynomolgus macaque PVRIG expressed on …

T2 sequence (A0A7N9I9V4 entry or part of it): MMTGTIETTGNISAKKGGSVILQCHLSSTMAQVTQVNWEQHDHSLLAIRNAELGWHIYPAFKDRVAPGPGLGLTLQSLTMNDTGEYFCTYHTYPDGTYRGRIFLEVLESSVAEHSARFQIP

B1: CPA.9.083 (antibody, V domains shown)
VH: EVQLVETGGGLIQPGRSLRLSCAASGFTFSSYAMHWVRQAPGKGLEWVAVISYDGTPVYYADSVKGRFTISRDNSKNTLYLQMNSLRAEDTAVYYCARDPLPLHYYGMDVWGQGTTVTVSS
VL: QSALTQPRSASGNPGQRVTISCSGSSSNMGRRPVNWYQQIPGTAPKLLIYSQNQRPSGVPDRFSGSQSGTSASLTISGLQSEDEAEYFCAVWDGDRRSLQLGGGTQLAVLG
Kd (mouse TIGIT): 0.7 nM

B3: BM26 (antibody, V domains shown)
VH: EVQLQQSGPELVKPGSSVKMSCKASGYTFSSYVMHWVKQKPGQGLEWIGYIDPYNDGAKYNEKFKGKATLTSDKSSSTAYMELSSLTSEDSAVYYCARGGPYGWYFDVWGAGTTVTVSS
VL: DIQMTQSPASLSASVGETVTITCRASEHIYSYLSWYQQKQGKSPQLLVYNAKTLAEGVPSRFSGSGSGTQFSLKINSLQPEDFGTYYCQHHFGSPLTFGAGTTLELKR
Kd (cynomolgus TIGIT [1]): 1.69 nM

B4: PVRIG (COM701) (antibody, V domains shown)
VH: QVQLVQSGAEVKKPGASVKVSCKASGYAFTNYLIEWVRQAPGQGLEWIGVINPGSGGIYYAQKFQGRVTMTADTSTSTVYMELSSLRSEDTAVYYCARSETHDTWFAYWGQGTLVTVSS
VL: DIQMTQSPSSLSASVGDRVTITCKASQSVRIAVAWFQQKPGKAPKALIYLASTRHTGVPSRFSGSGSGTDFTLTISSVQPEDFATYYCLQHWNYPYTFGQGTKLEIKR
Kd [2]: 0.248 nM

B5: CPA.9.547.13 (antibody, V domains shown)
VH: EVQLVESGGGLVQPGGSLRLSCAASGFTFSSYIMSWVRQAPGKGLEWVATISGGGTNTYYADSVKGRFTISRDNSKNTLYLQMNSLRAEDTAVYYCAKWLLSYYAMDYWGQGTLVTVSS
VL: DIQMTQSPSSLSASVGDRITITCRASQNINVWLTWYQQKPGKAPKLLIYKASKSHTGVPSRFSGSGSGTDFTLTISSLQPEDFATYYCQQGQSYPYTFGQGTKLEIKR
Kd (TIGIT [3]): 0.71 nM | Kd (cynomolgus TIGIT [4]): 1.67 nM

Continued, values first:

Kd (mouse TIGIT): 1.32 nM
B2: CPA.9.086 (antibody, V domains shown)
VH: EVQLVETGGGLIQPGRSLRLSCAASGFTFSSYAMHWVRQAPGKGLEWVAVISYAGEVKYYADSVKGRFTISRDNSKNTLYLQMNSLRAEDTAVYYCARDPLPLHYYGMDVWGQGTTVTVSS
VL: QSALTQPRSASGNPGQRVTISCSGSSSNMGRRPVNWYQQIPGTAPKLLIYSQNQRPSGVPDRFSGSQSGTSASLTISGLQSEDEAEYFCAVWDDIGRVLQLGGGTQLAVLG

Kd (TIGIT [5]): 1.82 nM | Kd (cynomolgus TIGIT [1]): 1.54 nM
B6: CHA.9.547.7 (antibody, V domains shown)
VH: EVQLVESGGGLVQPGGSLRLSCAASGFTFSSYIMSWVRQAPGKGLEWVSTISGGGTNTYYADSVKGRFTISRDNSKNTLYLQMNSLRAEDTAVYYCAKWLLSYYAMDYWGQGTLVTVSS
VL: DIQMTQSPSSLSASVGDRVTITCRASQNINVWLTWYQQKPGKAPKLLIYKASKSHTGVPSRFSGSGSGTDFTLTISSLQPEDFATYYCQQGQSYPYTFGQGTKLEIKR

Kd [6]: 0.35 nM
B7: CHA.7.518.1 (antibody, V domains shown)
VH: QVQLVQSGAEVKKPGASVKVSCKASGYTFTDYNINWVRQAPGQGLEWMGYIYPYIGGSGYAQKFQGRVTMTRDTSTSTVYMELSSLRSEDTAVYYCAREDKTARNAMDYWGQGTLVTVSS
VL: DIQMTQSPSSLSASVGDRVTITCRVSENIYSNLAWYQQKPGKAPKLLIYEATNLAEGVPSRFSGSGSGTDFTLTISSLQPEDFATYYCQHFWGTPYTFGQGTKLEIKR
